Assay results published in patent publication US20240117038A1 (Ablynx, published 2024).

Molecular target: T1, cynomolgus CX3CR1 (cynomolgus monkey (Macaca fascicularis), UniProt P49238 1-355 (human entry))
T1 construct: Overexpressed on CHO K1 cells; also called cyno CX3CR1; cyCX3CR1
T1 chain: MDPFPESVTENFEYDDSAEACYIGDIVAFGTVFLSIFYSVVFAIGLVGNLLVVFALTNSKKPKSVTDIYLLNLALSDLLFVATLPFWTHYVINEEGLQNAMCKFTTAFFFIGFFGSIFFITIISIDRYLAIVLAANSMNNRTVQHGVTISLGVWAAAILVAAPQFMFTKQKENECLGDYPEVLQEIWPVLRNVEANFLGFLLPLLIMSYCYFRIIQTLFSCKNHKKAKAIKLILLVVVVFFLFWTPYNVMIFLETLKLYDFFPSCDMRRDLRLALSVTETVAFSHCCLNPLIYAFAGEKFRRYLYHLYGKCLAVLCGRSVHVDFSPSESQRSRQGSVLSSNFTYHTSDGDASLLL
Experiment: flow cytometry on CHO K1 cells; tied to A041600085 by Table B-4 (5.6E-10 against 1.7E-10)
Procedure: CHO cells overexpressing human or cynomolgus CX3CR1 were generated using techniques known in the art. Cells were harvested and resuspended in assay buffer (PBS, 2% FBS, 0.05% NaN3) and seeded separately in 384-well Bio-One V-bottom plates (Greiner, Cat. No. 781280), with a total of 2E04 cells seeded per well. After washing, serial dilutions of multivalent ISVD construct (starting from 250 nM, 3-fold dilution, 11 points, diluted in assay buffer), were added and incubated for 4 hours at 4° C. Binding was performed in the presence of 30 uM HSA (Sigma-Aldrich, Cat. No. A8763). Plates were then washed 3 times and cells were incubated with an anti-VHH mouse antibody (3300-fold diluted in assay buffer) for 30 minutes at 4′° C. […] Plates were finally washed 3 times and cells were resuspended in PI (Miltenyi Biotec, Cat. No. 130-093-233, 1000-fold diluted in assay buffer). Cell suspensions were analyzed with iQue Screener PLUS (Intellicyt). EC50s were estimated by dose response modelling. Curves were fit using 4 parameter logistic regression in GraphPad (GraphPad Software Inc.). A purified anti-human CX3CR1 antibody [K0124E1] (BioLegend, Cat. No. 355701/355702) was used as positive control to detect CX3CR1 expression on the cell surface.

fold difference in EC50 (cyno CX3CR1 against human CX3CR1): 3.3 fold
B1: A041600085 (VHH)
chain: DVQLVESGGGLVQPGGSLRLSCAASGSIFSSTAMAWYRQAPGKRRDLVAAISTVGVTKYADSVKGRFTISRDNSKNTVYLQMNSLRPEDTAVYYCTSDPRRGWDTRYWGQGTLVTVSSGGGGSGGGSEVQLVESGGGVVQPGGSLRLSCAASGFTFRSFGMSWVRQAPGKGPEWVSSISGSGSDTLYADSVKGRFTISRDNSKNTLYLQMNSLRPEDTALYYCTIGGSLSRSSQGTLVTVSSGGGGSGGGSEVQLVESGGGLVQPGGSLRLSCAASGSIFSSTAMAWYRQAPGKRRDLVAAISTVGVTKYADSVKGRFTISRDNSKNTVYLQMNSLRPEDTAVYYCTSDPRRGWDTRYWGQGTLVTVSSA
notes: also called 307-9GS-ALB23002-9GS-307 (D1E)-A
